Experimental data: article PMC10157491

molecular target: T1, His6-NhaR (Escherichia coli MG1655?) (UniProt P0A9G2); assay: EMSA; settings: NhaR EMSA: 20 mM Tris-HCl pH 8.0, 100 mM NaCl, 1 mM DTT, 10% glycerol, 125 ug/mL BSA, 10 ng DNA in 10 uL, 25 C 20 min; Fis: 10 mM Tris-HCl pH 8.0, 150 mM NaCl …
T1 sequence: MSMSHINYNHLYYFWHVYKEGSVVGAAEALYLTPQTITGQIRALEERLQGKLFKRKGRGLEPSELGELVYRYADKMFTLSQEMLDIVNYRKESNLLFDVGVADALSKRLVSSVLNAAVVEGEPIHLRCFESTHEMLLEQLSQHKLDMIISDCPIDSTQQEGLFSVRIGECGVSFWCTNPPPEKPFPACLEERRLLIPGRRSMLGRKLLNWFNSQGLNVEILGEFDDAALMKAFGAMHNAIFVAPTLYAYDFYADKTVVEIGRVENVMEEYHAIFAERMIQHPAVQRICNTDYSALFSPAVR

binding, binds:
CAATTAAATCCGTGAGTGCCGTAGCGCAGCCTTTCATCAGGACTTTCGAAAAATCCGAAATCATGCATCGGAATTTACTGATTTAATTATTTTAATCCTAATTTATTTTGAAAAAGGCATTGGGATTTATGCCGTATTCCTGAAGA (double strand) [PpgaA]
CCCGGTAATCTATTGTGGGAATTTAATTTAAGTGCAGAAGTAATATTTTCGCCGGATTTTATTCGGAATATCCTGCTTATCCTCGTGCTGTTTCTCACGTAGTCTATAATTTCCTTTTTAAGCCCACAGGAGAGCAAC (double strand) [PosmC]
CCGTCAAAAACGCATCTCACCGCTGATGGCGCAAATTCTTCAATAGCTCGTAAAAAACGAATTATTCCTACACTATAATCTGATTTTAACGATGATTCGTGCGGGGTAAAATAGTAAAAACGATCTATTCACCTGAAAGAGAAATAAAAAGTGAAACATCTGCATCGATTCTTTAGCAGTGATGCCTCGGGA (double strand) [PnhaA]
